# ± gives the standard deviation of the averaged measurements.
# Columns and labels:
# [1] = system: Saccharomyces cerevisiae; test: protein stability index of tFT-peptide fusion (C-terminal peptide) (PSI (0-1 scale)); higher = more stable (slower turnover); conditions: genetic background: wild type; temperature: 30 C
# [2] = system: Saccharomyces cerevisiae; test: as above
# Description: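 MPS profiling in S. cerevisiae of the tFT-X12 degron library: putative degron peptides plus stable controls, 12 aa, fused to the C-terminus of a sfGFP-mCherry timer. Cells are FACS-sorted into 8 mCherry/sfGFP bins and deep-sequenced. PSI runs from 0 (unstable) to 1 (stable). Backgrounds are wild type, das1Δ and doa10Δ at 30 °C, and wild type, das1Δ, cdc34-1 and cdc53-1 at 37 °C; 2-3 technical replicates each.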
# [3] = genetic background: cdc34-1, temperature: 37 C
# [4] = genetic background: cdc53-1, temperature: 37 C
# [5] = genetic background: das1 deletion, temperature: 30 C
# [6] = genetic background: das1 deletion, temperature: 37 C
# [7] = genetic background: doa10 deletion, temperature: 30 C
# [8] = genetic background: wild type, temperature: 30 C
# [9] = genetic background: wild type, temperature: 37 C
# 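Also: PSI is a weighted mean of sequencing reads over stability bins, variants kept only with over 10 reads, mCherry proximal and sfGFP distal, peptide attached via GGGS linker.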
Sequence,protein stability index [1],"protein stability index [2, 3]","protein stability index [2, 4]","protein stability index [2, 5]","protein stability index [2, 6]","protein stability index [2, 7]","protein stability index [2, 8]","protein stability index [2, 9]"
ASSFYVDLVLVS,0.447 ± 0.0094,0.457 ± 0.014,0.464 ± 0.024,0.341 ± 0.034,0.516 ± 0.013,0.286 ± 0.0084,0.327 ± 0.046,0.484 ± 0.0065
YFFFYFFLLFHL,0.375 ± 0.071,0.265 ± 0.051,0.272 ± 0.036,0.332 ± 0.034,0.45 ± 0.045,0.416 ± 0.015,0.3115 ± 0.0019,0.429 ± 0.037
FPPFALLLIIND,0.406 ± 0.089,0.475 ± 0.015,0.54 ± 0.039,0.396 ± 0.023,0.581 ± 0.058,0.415 ± 0.0098,0.421 ± 0.029,0.525 ± 0.0097
FCFFSMGFVLAL,0.453 ± 0.072,0.3489 ± 0.00089,0.365 ± 0.0065,0.334 ± 0.0061,0.45 ± 0.017,0.289 ± 0.0053,0.314 ± 0.017,0.422 ± 0.026
RVWIVCYHVSSY,0.262 ± 0.076,0.214 ± 0.016,0.3264 ± 0.00073,0.204 ± 0.024,0.371 ± 0.011,0.196 ± 0.0097,0.207 ± 0.0069,0.349 ± 0.022
LLLFSFAALANF,0.347 ± 0.0064,0.539 ± 0.059,0.545 ± 0.017,0.398 ± 0.022,0.5592 ± 0.0013,0.245 ± 0.0066,0.283 ± 0.018,0.466 ± 0.02
PHHSPPTGPPND,0.687 ± 0.022,0.673 ± 0.011,0.737 ± 0.018,0.648 ± 0.008,0.7171 ± 0.0041,0.663 ± 0.014,0.658 ± 0.007,0.705 ± 0.0085
PTYTKYRTRQIN,0.0994 ± 0.044,0.528 ± 0.066,0.745 ± 0.025,0.62 ± 0.011,0.7536 ± 0.0066,0.0947 ± 0.015,0.133 ± 0.04,0.156 ± 0.024
CGILACSVCTFF,0.509 ± 0.021,0.547 ± 0.071,0.6516 ± 0.0037,0.427 ± 0.027,0.6336 ± 0.0037,0.405 ± 0.016,0.436 ± 0.024,0.61 ± 0.023
PFSLCFVFPFFF,0.187 ± 0.0097,0.52 ± 0.021,0.5891 ± 0.0011,0.567 ± 0.035,0.6329 ± 0.0063,0.143 ± 0.0063,0.174 ± 0.0044,0.28 ± 0.0092
SLGHIGFWRFAG,0.191 ± 0.011,0.554 ± 0.0087,0.709 ± 0.0081,0.66 ± 0.009,0.77 ± 0.011,0.103 ± 0.018,0.108 ± 0.013,0.169 ± 0.0063
VVSGLNYCLVLS,0.3917 ± 0.0038,0.48 ± 0.033,0.48 ± 0.029,0.29 ± 0.042,0.523 ± 0.006,0.276 ± 0.013,0.28 ± 0.039,0.4829 ± 0.0021
ARSGGYLMVVLV,0.463 ± 0.031,0.56 ± 0.033,0.599 ± 0.011,0.41 ± 0.032,0.601 ± 0.011,0.351 ± 0.0013,0.384 ± 0.023,0.562 ± 0.038
KLALVYLLIRGL,0.125 ± 0.06,0.423 ± 0.015,0.496 ± 0.028,0.366 ± 0.031,0.5681 ± 0.00085,0.0641 ± 0.01,0.0862 ± 0.02,0.0975 ± 0.0076
WCAVRVWFGAAL,0.505 ± 0.014,0.648 ± 0.052,0.676 ± 0.028,0.5731 ± 0.0039,0.693 ± 0.017,0.3927 ± 0.0016,0.424 ± 0.01,0.56132 ± 0.00042
FQPLELFFVCVF,0.305 ± 0.014,0.0866 ± 0.04,0.154 ± 0.025,0.199 ± 0.02,0.235 ± 0.014,0.163 ± 0.014,0.181 ± 0.023,0.212 ± 0.016
